The results in this text go back to the Immune Epitope Database (IEDB).

For test [1], the target named is HLA-A*02:01. Description: IEDB peptide-MHC binding, cellular MHC/competitive/fluorescence; ≥ and ≤ were set here for values at or beyond the usual limits of such assays.
Test [2] concerns the target HLA-C*04:01. Description: IEDB peptide-MHC binding, purified MHC/direct/fluorescence; filed as Kd, often an IC50 or EC50 that approximates it; ≥ and ≤ were set here for values at or beyond the usual limits of such assays.
In a further test the target is HLA-A*24:02. The test is described as above. The settings on record: source organism: Giardia lamblia ATCC 50803.
The target of test [3] is HLA-A*02:01. Description: IEDB peptide-MHC binding, purified MHC/competitive/fluorescence; filed as Kd, often an IC50 or EC50 that approximates it; ≥ and ≤ were set here for values at or beyond the usual limits of such assays. The settings on record: source organism: Human immunodeficiency virus 1.
Another test addresses HLA-A*02:03. The description is as above. The conditions noted are these: source organism: Human immunodeficiency virus 1.
The target of the next test is HLA-A*02:06. The description is as above. The conditions noted are these: source organism: Human immunodeficiency virus 1.
The target in another test is HLA-A*26:01. Described as above. The settings on record: source organism: Human immunodeficiency virus 1.
The target of a further test is HLA-A*26:03. The test is described as above. The conditions noted are these: source organism: Human immunodeficiency virus 1.
The target of another test is HLA-A*30:01. Described as above. The settings on record: source organism: Human immunodeficiency virus 1.
In the next test the target is HLA-B*15:01. The description is as above. The settings on record: source organism: Human immunodeficiency virus 1.
For the next test, the target named is HLA-B*39:01. The test is described as above. The conditions noted are these: source organism: Human immunodeficiency virus 1.
A further test addresses HLA-C*06:02. The test can be described thus: IEDB peptide-MHC binding, purified MHC/direct/fluorescence; filed as Kd, often an IC50 or EC50 that approximates it; ≥ and ≤ were set here for values at or beyond the usual limits of such assays. The conditions noted are these: source organism: human gammaherpesvirus 4.
The target in a further test is HLA-B*15:42. The test can be described thus: IEDB peptide-MHC binding, purified MHC/competitive/fluorescence; filed as Kd, often an IC50 or EC50 that approximates it; ≥ and ≤ were set here for values at or beyond the usual limits of such assays. The settings on record: source organism: human gammaherpesvirus 4.
In the next test the target is HLA-B*27:20. The test is described as above. The settings on record: source organism: human gammaherpesvirus 4.
Another test addresses HLA-B*45:06. The test is described as above. The conditions noted are these: source organism: human gammaherpesvirus 4.
For test [4], the target named is HLA-C*04:01. The description is as above. The conditions noted are these: source organism: human gammaherpesvirus 4.

Turning to AQLLTEFAI, in the test with HLA-A*02:01 [1] (source organism: Mycobacterium tuberculosis), the IC50 is 25000 nM. That is a double-digit micromolar value.
With KYFIPVIEI, in the test with HLA-C*04:01 [2] (source organism: Homo sapiens), the Kd was ≥ 20000 nM.
For YWLNTPFLV, the Kd with HLA-A*24:02 was ≤ 1 nM; in the test with HLA-C*04:01 [2] (source organism: Giardia lamblia ATCC 50803) it was ≥ 20000 nM.
In the case of KLKSLYNTV, the Kd is 26.1 nM with HLA-A*02:01 [3]; 13.1 nM in the test with HLA-A*02:03; 17.4 nM in the test with HLA-A*02:06; ≥ 20000 nM with HLA-A*26:01; ≥ 20000 nM with HLA-A*26:03; 1.3 nM with HLA-A*30:01. In addition, the dissociation constant Kd in the test with HLA-B*15:01 and with HLA-B*39:01 was ≥ 20000 nM each time.
RRYRRIYDL: the dissociation constant Kd in the test with HLA-C*06:02 was 17 nM; in the test with HLA-B*15:42, ≥ 5000 nM; with HLA-B*27:20 it was ≤ 0.1 nM; with HLA-B*45:06 it was ≥ 5000 nM; in the test with HLA-C*04:01 [4], ≥ 5000 nM.
Consider SPSVDKARAEL, for which the IC50 with HLA-A*02:01 [1] (source organism: Homo sapiens) was ≥ 200000 nM.

The term IC50 denotes the midpoint of a concentration-inhibition curve. Low values mean inhibition by little substance, high ones a need for much substance. A word on the Kd: it is the free concentration of one partner at which half of the binding sites on the other are occupied at equilibrium, for simple one-to-one binding. The low end stands for higher affinity, the high end for lower affinity.
